In US20210047411A1 (BIOND BIOLOGICS, published 2021):
No end group written: not given here.

Assays:
[1] = biological target: Irrelevant control (Table 1); assay: ELISA, same clone on the irrelevant control; unit not given
[2] = biological target: T1, BSA conjugated CD28 stalk region dimeric peptide (human, not fully specified (C-terminus); also: hydrazide-terminated peptide conjugated to S-4FB modified BSA, dimeric peptide); assay: ELISA, antigen on plate, serial dilution of antibody
T1 construct: Dimeric peptide; dimerization confirmed on a non-denaturing gel; also called stalk region peptide; dimeric human CD28 stalk region peptide
T1 peptide: GKHLCPSPLFPGPSKPK

[3] = biological target: T2, recombinant human CD28 (R&D systems, Cat. No. 342-CD; human CD28-Ig chimera) (human, UniProt P10747 19-152); assay: direct ELISA, recombinant human sCD28 on maxisorp plates
T2 construct: extracellular domain; also called rhCD28; recombinant human sCD28; not shown: Ig (Fc) portion of the bought chimera; not specified

[4] = biological target: T2, recombinant human CD28 (R&D systems, …); assay: direct ELISA, recombinant human sCD28 on maxisorp plates; reference CD28.2

B1: clone M9 (antibody, V domains shown)
VH: DVKLVESGGGLVKLGGSLKLSCVASGFTFSSYYMSWVRQTPEKRLEWVATISDGGDNTYYAGTVTGRFTISRDFAKNTLYLQMNSLTSEDTAVYYCARIHWPYYFDSWGQGTTLTVSS
VL: QFVLSQSPAILSASPGEMLTMTCRASSSVSYMNWYQQKPGSSPKPWIYATSDLASGVPARFSGSGSGTSYSLTISRVEAEDAATYYCQQWSSHPPTFGGGTKLEIR
notes: also called 4G07; antibody M9
B1 was tested. Which ELISA signal on irrelevant control [1] did it give?
Its ELISA signal on irrelevant control is 0.06.

Does B1 bind [2]?
Result: binds

B2: Antibody #2 (antibody, mouse IgG2b, kappa, V domains shown)
VH: QVQLQQSGAELARPGASVKLSCKASGYTFTSYWMQWIKKRPGQGLEWIGAIYPGDGDTRYTQKFKGKATLTADKSSTTAYMQLSSLASEDSAVYFCARNYRYSSFGYWGQGTLVTVSA
VL: DIVMTQSPSSLTVTAGEKVTLSCKSSQSLLNSGNQKNYLTWYQQKPGQPPQLLIYWASTRESGVPDRFTGSGSGTDFTLTISSVQAEDLAVYYCQSDYSYPLTFGAGTKLELKR
Does B2 bind [3]?
Result: binds

B3: Antibody #1 (antibody, mouse IgG1, kappa, V domains shown)
VH: QIQLVQSGPELKKPGETVKISCKASGYTLTNYGMNWVKQAPGKGLKWMGWINTYTGKPTYVDDFKGRFAFSLETSASTAYLQINNLKNEDTATYFCARGDANQQFAYWGQGTLVTVSA
VL: DIKMTQSPSSMYASLGERVTITCKASQDINSYLSWFQQKPGKSPKTLIYRANRLVDGVPSRFSGSGSGQDYSLTISSLEYDDMGIYYCLQYDEFPPTFGAGTKLELKR
For B3, which “fold detection against CD28.2” value [4] is on record?
Its value is ~10 fold.
